Source: patent US20260210971A1 (Pfizer, published 2026)
Residue numbers refer to the chain shown, from its start. Where two headings read alike, the source gives them in different places.

T1: recombinant soluble cynomolgus monkey TL1A (cynomolgus monkey, UniProt O95150 72-251 (human entry))
T1 construct: also called cyno rsTL1A; cyno TL1A
T1 chain: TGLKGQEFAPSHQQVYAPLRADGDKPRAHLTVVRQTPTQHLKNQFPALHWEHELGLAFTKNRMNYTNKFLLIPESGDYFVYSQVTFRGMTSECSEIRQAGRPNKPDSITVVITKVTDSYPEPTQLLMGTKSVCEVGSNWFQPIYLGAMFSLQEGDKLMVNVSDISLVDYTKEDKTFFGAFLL

T2: recombinant soluble murine TL1A (mouse, UniProt Q5UBV8 75-252)
T2 construct: also called murine rsTL1A; mouse TL1A
T2 chain: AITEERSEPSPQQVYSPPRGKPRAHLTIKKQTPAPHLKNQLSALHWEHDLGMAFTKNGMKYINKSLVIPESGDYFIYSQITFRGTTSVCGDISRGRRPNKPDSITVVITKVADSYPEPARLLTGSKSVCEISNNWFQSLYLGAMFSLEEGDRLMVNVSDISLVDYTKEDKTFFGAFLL

T3: recombinant soluble rat TL1A (rat, UniProt Q8K3Y7 76-252)
T3 construct: also called rat rsTL1A
T3 sequence: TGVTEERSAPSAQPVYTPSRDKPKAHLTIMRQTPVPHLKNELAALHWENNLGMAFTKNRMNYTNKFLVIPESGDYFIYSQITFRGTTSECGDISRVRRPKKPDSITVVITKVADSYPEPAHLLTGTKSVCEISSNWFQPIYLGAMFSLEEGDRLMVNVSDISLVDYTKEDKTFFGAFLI

T4: DR3 on TF-1 cells (human, UniProt Q93038 25-417)
T4 sequence (looked up): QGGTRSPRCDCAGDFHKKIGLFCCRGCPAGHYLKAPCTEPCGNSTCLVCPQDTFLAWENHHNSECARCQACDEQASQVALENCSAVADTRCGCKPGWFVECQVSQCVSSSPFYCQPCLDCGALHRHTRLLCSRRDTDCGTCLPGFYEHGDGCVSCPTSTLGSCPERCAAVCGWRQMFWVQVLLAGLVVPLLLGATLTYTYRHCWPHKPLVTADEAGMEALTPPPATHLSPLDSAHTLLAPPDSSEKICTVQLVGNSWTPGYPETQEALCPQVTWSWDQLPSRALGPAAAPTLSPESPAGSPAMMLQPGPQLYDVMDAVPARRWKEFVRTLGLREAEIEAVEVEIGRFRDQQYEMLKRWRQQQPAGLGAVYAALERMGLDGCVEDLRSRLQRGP

B1: anti-TL1A antibody 26B11 (antibody, V domains shown)
VH: QVQLVESGGGVVQPGRSLRLSCAASGFTFSSFAMHWVRQAPGKGLEWVALIPFDGSSNYYADSVKGRFTISRDNSKNTLYLQMNSLRAEDTAVYYCARDRNYYGSGSFSFDAFDIWGQGTLVTVSS
VL: DIQMTQSPSSLSASVGDRVTITCRASQGISNWLAWYQQKPEKAPKSLIYAASSLQSGVPSRFSGSGSGTDFTLTISSLQPEDFATYYCQQYNSYPYTFGQGTKLEIKR
notes: also called 26B11-hIgG1-3m
B2: anti-TL1A antibody 7D4 (antibody, human IgG1, kappa, V domains shown)
VH: QVQLVQSGAEVKKPGASVKVSCKASGYTFTSYGINWVRQAPGQGLEWMGWISTYNGNTNSAQKLQGRVTMTTDTSTSTAYMELRSLRSDDTAVYYCARAHSSSWFDAFDIWGQGTMVTVSS
VL: AIQLTQSPSSLSASVGDRVTITCRASQGISSALAWYQQKPGKAPKLLIYDASSLESGVPSRFSGSGSGTDFTLTISSLQPEDFATYYCQQFNSYPLTFGGGTKVEIKR
notes: Human IgG1-3m, kappa; also called 7D4-hIgG1-3m
B3: 1D1 1.30 (antibody, human IgG1, kappa, V domains shown)
VH: QVQLVQSGAEVKKPGASVKVSCKASGYDFTYYGISWVRQAPGQGLEWMGWISTYNGVTHYARMLQGRVTMTTDTSTRTAYMELRSLRSDDTAVYYCARENYYGSGSYRGGMDVWGQGTTVTVSS
VL: EIVLTQSPATLSLSPGERATLSCRASQSVSSYLAWYQQKPGQAPRLLIYDASNRATGIPARFSGSGSGTDFTLTISSLEPEDFAVYYCQQRSNWPWTFGQGTKVEIKR
notes: Expressed as IgG1; also called 1D1 1.30-hIgG1-3m
B4: 1D1 D37 (antibody, IgG1, V domains shown)
VH: B3 VH with D28S, V57G
VL: B3 VL
notes: same light chain as 1D1; also called 1D1-VH-37
B5: 1D1 D39 (antibody, V domains shown)
VH: B3 VH with D28S, V57N, H59N, S106A, V113A
VL: B3 VL
notes: IgG with triple mutant Fc as for 1D1 D37
B6: 1D1 D24 (antibody, V domains shown)
VH: B3 VH with D28S, T53P, V57N
VL: B3 VL
notes: as for B5
B7: 1D1 D38 (antibody, V domains shown)
VH: B3 VH with D28S
VL: B3 VL
notes: as for B5
B8: 1D1 1.32 (antibody, human IgG1, kappa, V domains shown)
VH: B3 VH with V57G, S106A, V113A
VL: B3 VL
notes: Expressed as IgG1
B9: 1D1 DH3 (antibody, V domains shown)
VH: B3 VH with D28S, V57N, R62Q
VL: B3 VL
notes: as for B5
B10: 1D1 1.34 (antibody, human IgG1, kappa, V domains shown)
VH: B3 VH with V57K, L64H, S106A, V113A
VL: B3 VL
notes: Expressed as IgG1
B11: recombinant soluble human TL1A (ligand)
chain: ALKGQEFAPSHQQVYAPLRADGDKPRAHLTVVRQTPTQHFKNQFPALHWEHELGLAFTKNRMNYTNKFLLIPESGDYFIYSQVTFRGMTSECSEIRQAGRPNKPDSITVVITKVTDSYPEPTQLLMGTKSVCEVGSNWFQPIYLGAMFSLQEGDKLMVNVSDISLVDYTKEDKTFFGAFLL

How the values were obtained:
[1] = biological target: B11; assay: SPR, IgG captured on anti-hIgG, TL1A injected;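 as to t1/2: biacore surface plasmon resonance on a dextran sensor chip, double-referenced sensorgrams fitted to a one-to-one binding model, KD taken as dissociation over association rate constant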
Source text: (§1) To characterize the binding kinetics of the anti-TL1A antibodies to TL1A by surface plasmon resonance, each anti-TL1A antibody was captured via directly immobilized anti-human IgG (GE Healthcare) onto a carboxymethylated dextran sensor chip surface (CM5) using a Biacore T100 or T200 instrument. Anti-human IgG was immobilized through amine coupling to densities of approximately 4,000-13,000 response units (RU). […] At the end of each cycle, the entire anti-human IgG (hIgG) surface was regenerated by a 30-second pulse of 3M MgCl₂ followed by two consecutive 15-second pulses of PBS-NET. All injections were performed at 25° C. at a collection rate of 10 Hz. All sensorgrams were double referenced by using both a control surface and buffer injections. Rate constants were determined by fitting the data to a 1:1 model in Biacore T100, T200 evaluation software v1.0, or BIAevaluation software v4.1.1 and the equation KD=kd/kₐ.
(§2) The anti-TL1A antibodies were captured onto immobilized anti-human Fc on a CM5 sensor chip on a Biacore T100 instrument. […] Rate constants shown in the table were determined by fitting to a 1:1 Langmuir binding model in BiaEvaluation v4.1.1 (fit lines shown in red). Data shown are the average and standard deviation of at least 3 independent surfaces between 2 experiments.

[2] = biological target: T1, recombinant soluble cynomolgus monkey …; assay: SPR, IgG captured on anti-hIgG, TL1A injected;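 as to t1/2: biacore surface plasmon resonance on a dextran sensor chip, double-referenced sensorgrams fitted to a one-to-one binding model, KD taken as dissociation over association rate constant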
Source text: as §1, §2

[3] = biological target: B11; assay: cell-based or functional assay
[4] = biological target: B11; assay: KinExA, equilibrium in solution
[5] = biological target: T1, recombinant soluble cynomolgus monkey …; assay: SPR, IgG captured on anti-hIgG, TL1A injected;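 as to t1/2: biacore surface plasmon resonance on a dextran sensor chip, double-referenced sensorgrams fitted to a one-to-one binding model, KD taken as dissociation over association rate constant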
Source text: (§3) The antibodies were captured via directly immobilized anti-human IgG (GE Healthcare) onto a carboxymethylated dextran sensor chip surface (CM5) using a Biacore T100 or T200 instrument. Anti-human IgG was immobilized through amine coupling to densities of approximately 4,000-13,000 response units (RU). […] At the end of each cycle, the entire anti-hIgG surface was regenerated by a 30-second pulse of 3M MgCl₂ followed by two consecutive 15-second pulses of PBS-NET. […] All injections were performed at 25° C. at a collection rate of 10 Hz. All sensorgrams were double referenced by using both a control surface and buffer injections. Rate constants were determined by fitting the data to a 1:1 model in Biacore T100, T200 evaluation software v1.0, or BIAevaluation software v4.1.1 and the equation KD=Kd/kₐ.
(§4) At the highest cytokine concentrations, the dissociation phase was sometimes extended to 60 minutes to achieve at least a 5% decrease in binding signal.

[6] = biological target: T2, recombinant soluble murine TL1A; assay: SPR, IgG captured on anti-hIgG, TL1A injected;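 as to koff: biacore measurement on a carboxymethylated dextran chip, double-referenced against a control surface and buffer, rates fitted to a one-to-one binding model, KD from koff over kon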;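 as to kon: biacore measurement on a carboxymethylated dextran chip, double-referenced against a control surface and buffer, rates fitted to a one-to-one binding model, KD from koff over kon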
[7] = biological target: T3, recombinant soluble rat TL1A; assay: SPR, IgG captured on anti-hIgG, TL1A injected
Source text: as §3, §4

[8] = biological target: B11; assay: SPR, IgG captured on anti-hIgG, TL1A injected; off rate too slow to measure;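 as to t1/2: biacore surface plasmon resonance on a dextran sensor chip, double-referenced sensorgrams fitted to a one-to-one binding model, KD taken as dissociation over association rate constant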
[9] = biological target: B11; assay: SPR, IgG captured on anti-hIgG, TL1A injected; remark: listed apart in the source
Procedure: Biacore analysis was performed using T-200 biosensor, series S CM5 chips and approximately 4000 RU (response units) of an anti-human IgG (GE Healthcare), immobilized in 10 mM sodium acetate immobilization buffer at pH 5.0. Assay conditions were established to minimize the influence of mass transfer, avidity, and rebinding events, as described below. A blank immobilization was carried out on a separate flow cell for reference subtraction. The purified IgGs were diluted in running buffer (PBS, 300 mM sodium chloride, 3.2 mM ethylenediaminetetraacetic acid, 0.01% Tween20) and low levels (<30 RU) captured using a flow rate of 100 μl/min for 2 min, to reduce possible rebinding by the trimeric TL1A. […] Reference-subtracted sensorgrams for each concentration were analyzed using Biacore T-200 evaluation software (v1.0).

[10] = biological target: B11; assay: SPR, IgG captured on anti-hIgG, TL1A injected; remark: listed apart in the source
[11] = biological target: T1, recombinant soluble cynomolgus monkey …; assay: SPR, IgG captured on anti-hIgG, TL1A injected
[12] = biological target: T2, recombinant soluble murine TL1A; assay: SPR, IgG captured on anti-hIgG, TL1A injected;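 as to koff: biacore measurement on a carboxymethylated dextran chip, double-referenced against a control surface and buffer, rates fitted to a one-to-one binding model, KD from koff over kon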;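 as to kon: biacore measurement on a carboxymethylated dextran chip, double-referenced against a control surface and buffer, rates fitted to a one-to-one binding model, KD from koff over kon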
DR3 on TF-1 cells = biological target: T4, DR3 on TF-1 cells; assay: cell-based or functional assay

Binder: B1
Kd [1]: 0.6 nM
koff [1]: 0.00011 s⁻¹
kon [1]: 170000 M⁻¹ s⁻¹
Kd [2]: 36 nM
koff [2]: 0.006 s⁻¹
kon [2]: 200000 M⁻¹ s⁻¹

Binder: B2
Kd [1]: 0.9 nM
koff [1]: 0.0004 s⁻¹
kon [1]: 400000 M⁻¹ s⁻¹
Kd [2]: 6.9 nM
koff [2]: 0.0014 s⁻¹
kon [2]: 200000 M⁻¹ s⁻¹

Binder: B3
Caspase Assay, average IC50 [3]: 103 pM
NFkB Assay, average IC50 [3]: 370 pM
Kd [4]: 6.8 pM
Kd [5]: 0.142 nM
koff [5]: 6e-05 s⁻¹
kon [5]: 410000 M⁻¹ s⁻¹
t1/2 [5]: 3.31 h
Kd [6]: 5.25 nM
koff [6]: 0.0007 s⁻¹
kon [6]: 140000 M⁻¹ s⁻¹
t1/2 [6]: 1080 s
Kd [7]: 41.9 nM
koff [7]: 0.0098 s⁻¹
kon [7]: 240000 M⁻¹ s⁻¹
t1/2 [7]: 71 s
Kd [8]: < 0.1 nM

Binder: B4
Kd [9]: 0.326 nM
koff [9]: 0.00035 s⁻¹
kon [9]: 1.26e+06 M⁻¹ s⁻¹
Kd [10]: 0.305 nM
Kd [11]: 0.335 nM
Kd [12]: 0.787 nM

Binder: B5
Kd [9]: 0.442 nM
koff [9]: 0.000355 s⁻¹
kon [9]: 784000 M⁻¹ s⁻¹
Kd [10]: 0.441 nM
Kd [11]: 0.396 nM
Kd [12]: 0.613 nM

Binder: B6
Kd [9]: 0.394 nM
koff [9]: 0.000806 s⁻¹
kon [9]: 2.04e+06 M⁻¹ s⁻¹
Kd [10]: 0.932 nM
Kd [11]: 0.943 nM
Kd [12]: 0.804 nM

Binder: B7
Kd [9]: 0.44 nM
koff [9]: 0.000463 s⁻¹
kon [9]: 1.05e+06 M⁻¹ s⁻¹
Kd [10]: 0.687 nM
Kd [11]: 0.611 nM
Kd [12]: 1.29 nM

Binder: B8
Caspase Assay, average IC50 [3]: 61.5 pM
NFkB Assay, average IC50 [3]: 180 pM
Kd [4]: 6.15 pM
Kd [5]: 0.066 nM
koff [5]: 2.9e-05 s⁻¹
kon [5]: 460000 M⁻¹ s⁻¹
t1/2 [5]: 6.63 h
Kd [6]: 0.906 nM
koff [6]: 0.00023 s⁻¹
kon [6]: 260000 M⁻¹ s⁻¹
t1/2 [6]: 2970 s
Kd [7]: 5.02 nM
koff [7]: 0.0029 s⁻¹
kon [7]: 580000 M⁻¹ s⁻¹
t1/2 [7]: 237 s
Kd [8]: < 0.1 nM

Binder: B9
Kd [9]: 0.412 nM
koff [9]: 0.00102 s⁻¹
kon [9]: 2.49e+06 M⁻¹ s⁻¹
Kd [10]: 0.56 nM
Kd [11]: 0.675 nM
Kd [12]: 0.62 nM

Binder: B10
Caspase Assay, average IC50 [3]: 62.7 pM
NFkB Assay, average IC50 [3]: 182 pM
Kd [4]: 1.16 pM
Kd [5]: 0.083 nM
koff [5]: 3.6e-05 s⁻¹
kon [5]: 440000 M⁻¹ s⁻¹
t1/2 [5]: 5.38 h
Kd [6]: 1.11 nM
koff [6]: 0.00028 s⁻¹
kon [6]: 250000 M⁻¹ s⁻¹
t1/2 [6]: 2510 s
Kd [7]: 5.92 nM
koff [7]: 0.0024 s⁻¹
kon [7]: 410000 M⁻¹ s⁻¹
t1/2 [7]: 286 s
Kd [8]: < 0.1 nM

Binder: B11
NFκB-luciferase activity in TF-1-NFκB-luciferase cells, EC50 (DR3 on TF-1 cells): 149 pM
NFκB-luciferase activity, EC50 in the absence of isotype control antibody (DR3 on TF-1 cells): 103 pM
NFκB-luciferase activity, EC50 in the presence of isotype control antibody (DR3 on TF-1 cells): 110 pM
caspase activity in TF-1 cells with cycloheximide, EC50 (DR3 on TF-1 cells): 90 pM
